Laboratory results: patent publication US5955329
Changes are numbered by the printed parent chain. In names and notes the source's numbering stands.

Tests used:
[1] = target: bay thioesterase triple mutant M197R/R199H/T231K (California bay (Umbellularia californica)); experiment: inhibition of 14:0-ACP thioesterase activity; 5 µM cold 12:0-ACP against 5 µM 14C labeled 14:0-ACP as competitor
[2] = target: California bay (Umbellularia californica) C12 preferring acyl-ACP thioesterase, wild type, mature protein from pCGN3823 (California bay (Umbellularia californica)); experiment: as above
[3] = target: bay thioesterase triple mutant M197R/R199H/T231K (California bay (Umbellularia californica)); experiment: inhibition kinetics of thioesterase activity; slope inhibition constant of 12:0-ACP with 14:0-ACP as varied substrate
[4] = target: California bay (Umbellularia californica) C12 preferring acyl-ACP thioesterase, wild type, mature protein from pCGN3823 (California bay (Umbellularia californica)); experiment: as above
[5] = target: bay thioesterase triple mutant M197R/R199H/T231K (California bay (Umbellularia californica)); experiment: inhibition of 14:0-ACP thioesterase activity; 25 µM cold 12:0-ACP against 5 µM 14C labeled 14:0-ACP as competitor
[6] = target: California bay (Umbellularia californica) C12 preferring acyl-ACP thioesterase, wild type, mature protein from pCGN3823 (California bay (Umbellularia californica)); experiment: as above
[7] = target: 14:0-ACP
[8] = target: 16:0 acyl-ACP
[9] = target: 18:0 acyl-ACP
[10] = target: 16:0 acyl-ACP; remark: listed apart in the source
[11] = target: 18:1 acyl-ACP
[12] = target: 18:0 acyl-ACP; remark: listed apart in the source
[13] = target: 12:0-ACP
[14] = target: 14:0-ACP; remark: listed apart in the source
[15] = target: acyl-ACP substrates (chain length not stated for this assay)
[16] = target: 12:0-ACP; remark: listed apart in the source
[17] = target: 14:0-ACP; remark: listed apart in the source
[18] = target: 12:0-ACP; remark: listed apart in the source

12:0-ACP showed an Inhibition (%) [1] of 48%, an Inhibition (%) [2] of 53% and a Ki [3] of 11.6 µM. It also gave a Ki [4] of 10.2 µM, an Inhibition (%) [5] of 76% and an Inhibition (%) [6] of 78%.

Work on “Cuphea palustris Class II acyl-ACP thioesterase CpFatB1 (MCT29), mature region as lacZ fusion protein (MCT29LZ) (enzyme)” yielded an acyl-ACP thioesterase activity (% of the C8-ACP activity) [7] of 10.

“Cuphea palustris Class II acyl-ACP thioesterase CpFatB2 (MCT34), mature region as lacZ fusion protein (MCT34LZ) (enzyme)” showed an acyl-ACP thioesterase activity (% of the C14-ACP activity) [8] of 30.

Work on “mangosteen (Garcinia mangifera) Class I acyl-ACP thioesterase GarmFatA1, wild type (enzyme)” yielded an Acyl-ACP Thioesterase activity (cpm/min) [9] of 23900 cpm/min, an Acyl-ACP Thioesterase activity (cpm/min) [10] of 4370 cpm/min and an Acyl-ACP Thioesterase activity (cpm/min) [11] of 87400 cpm/min.

With “mangosteen GarmFatA1 mutant D261K (enzyme)” the thioesterase activity, preference 18:0/18:1 (% (18:0/18:1)) [12] was 35.

B1: California bay (Umbellularia californica) C12 preferring acyl-ACP thioesterase, wild type, mature protein from pCGN3823 (enzyme)
chain: LEWKPKPKLPQLLDDHFGLHGLVFRRTFAIRSYEVGPDRSTSILAVMNHMQEATLNHAKSVGILGDGFGTTLEMSKRDLMWVVRRTHVAVERYPTWGDTVEVECWIGASGNNGMRRDFLVRDCKTGEILTRCTSLSVLMNTRTRRLSTIPDEVRGEIGPAFIDNVAVKDDEIKKLQKLNDSTADYIQGGLTPRWNDLDVNQHVNNLKYVAWVFETVPDSIFESHHISSFTLEYRRECTRDSVLRSLTTVSGGSSEAGLVCDHLLQLEGGSEVLRARTEWRPKLTDSFRGISVIPAEPRV
Molecule B1 has a Km,app [13] of 1.9 µM and a Km,app [14] of 6.4 µM.

B2: bay thioesterase mutant C320S (enzyme)
chain: B1 chain with C237S
B2 showed a thioesterase activity (% of the wild-type activity) [15] of 80.

B3: bay thioesterase mutant R327Q (enzyme)
chain: B1 chain with R244Q
Molecule B3 has a thioesterase specific activity (fold decrease) [16] of 100 and a thioesterase specific activity (fold decrease) [17] of 30.

B4: bay thioesterase triple mutant M197R/R199H/T231K (enzyme)
chain: B1 chain with M114R, R116H, T148K
B4 showed a Km,app [14] of 2.3 µM.

B5: bay thioesterase mutant R322M/R327Q (enzyme)
chain: B1 chain with R239M, R244Q
Molecule B5 has a thioesterase specific activity (fold decrease) [16] of 100 and a thioesterase specific activity (fold decrease) [17] of 30.

B6: bay thioesterase mutant M197R/R199H (enzyme)
chain: B1 chain with M114R, R116H
For B6, the thioesterase activity [18] was 7 fold reduced.
